Data from patent EP2784083A1 (Charité - Universitätsmedizin Berlin, dated 2014).

Columns and labels:
Test in all cases: cell-based or functional assay
[1] = biological target: hBMP2(N341 V-N384W) (human) (UniProt P12643)
[2] = biological target: wildtype human BMP2 (human) (UniProt P12643)
murine Acvr1 c = biological target: T1, murine Acvr1 c (murine, UniProt Q8K348 26-493)
T1 sequence (looked up): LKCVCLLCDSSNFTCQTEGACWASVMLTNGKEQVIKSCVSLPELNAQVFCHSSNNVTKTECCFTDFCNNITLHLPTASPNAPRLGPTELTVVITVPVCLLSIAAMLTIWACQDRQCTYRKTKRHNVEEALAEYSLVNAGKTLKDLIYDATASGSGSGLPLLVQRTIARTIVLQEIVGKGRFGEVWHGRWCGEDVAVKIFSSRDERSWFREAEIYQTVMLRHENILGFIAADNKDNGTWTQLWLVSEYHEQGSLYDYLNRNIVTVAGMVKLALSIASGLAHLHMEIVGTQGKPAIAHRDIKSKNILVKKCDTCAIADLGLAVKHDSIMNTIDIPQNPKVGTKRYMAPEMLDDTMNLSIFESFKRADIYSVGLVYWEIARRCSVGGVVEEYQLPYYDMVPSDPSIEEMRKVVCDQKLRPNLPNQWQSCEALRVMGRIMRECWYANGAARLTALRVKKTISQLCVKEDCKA

murine Acvr1 = biological target: T2, murine Acvr1 (murine, UniProt P37172 21-509)
T2 sequence (looked up): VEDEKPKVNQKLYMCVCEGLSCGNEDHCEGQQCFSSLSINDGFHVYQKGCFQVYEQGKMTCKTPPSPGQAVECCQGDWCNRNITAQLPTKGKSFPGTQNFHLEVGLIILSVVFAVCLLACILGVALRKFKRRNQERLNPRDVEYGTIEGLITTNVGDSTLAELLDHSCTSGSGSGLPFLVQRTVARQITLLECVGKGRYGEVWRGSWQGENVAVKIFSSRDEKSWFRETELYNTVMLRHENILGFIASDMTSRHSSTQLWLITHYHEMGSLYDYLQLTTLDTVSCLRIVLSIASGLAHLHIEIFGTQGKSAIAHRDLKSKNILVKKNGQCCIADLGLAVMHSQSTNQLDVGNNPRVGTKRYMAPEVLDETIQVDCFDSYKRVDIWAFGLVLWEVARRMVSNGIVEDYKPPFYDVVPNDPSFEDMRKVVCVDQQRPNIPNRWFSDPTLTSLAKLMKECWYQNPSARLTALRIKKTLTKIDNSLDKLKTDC

murine Acvrl1 = biological target: T3, murine Acvrl1 (murine, UniProt Q61288 23-502)
T3 sequence (looked up): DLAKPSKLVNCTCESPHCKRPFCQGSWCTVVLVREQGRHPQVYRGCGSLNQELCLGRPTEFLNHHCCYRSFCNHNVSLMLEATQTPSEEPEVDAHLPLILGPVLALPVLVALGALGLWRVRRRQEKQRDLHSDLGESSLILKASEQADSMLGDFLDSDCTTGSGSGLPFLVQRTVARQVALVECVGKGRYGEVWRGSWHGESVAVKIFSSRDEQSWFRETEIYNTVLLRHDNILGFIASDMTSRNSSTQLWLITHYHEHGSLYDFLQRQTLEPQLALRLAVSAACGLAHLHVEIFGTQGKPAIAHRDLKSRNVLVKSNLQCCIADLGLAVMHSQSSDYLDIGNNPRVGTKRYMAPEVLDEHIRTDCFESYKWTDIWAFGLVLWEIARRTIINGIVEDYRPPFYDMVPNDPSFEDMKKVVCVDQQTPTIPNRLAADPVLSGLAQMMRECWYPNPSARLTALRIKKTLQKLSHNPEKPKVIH

murine Bmpr1b = murine Bmpr1b (murine, UniProt P36898 14-502)
murine Actr1 b = biological target: T4, murine Actr1 b (murine, UniProt Q61271 24-505)
T4 sequence (looked up): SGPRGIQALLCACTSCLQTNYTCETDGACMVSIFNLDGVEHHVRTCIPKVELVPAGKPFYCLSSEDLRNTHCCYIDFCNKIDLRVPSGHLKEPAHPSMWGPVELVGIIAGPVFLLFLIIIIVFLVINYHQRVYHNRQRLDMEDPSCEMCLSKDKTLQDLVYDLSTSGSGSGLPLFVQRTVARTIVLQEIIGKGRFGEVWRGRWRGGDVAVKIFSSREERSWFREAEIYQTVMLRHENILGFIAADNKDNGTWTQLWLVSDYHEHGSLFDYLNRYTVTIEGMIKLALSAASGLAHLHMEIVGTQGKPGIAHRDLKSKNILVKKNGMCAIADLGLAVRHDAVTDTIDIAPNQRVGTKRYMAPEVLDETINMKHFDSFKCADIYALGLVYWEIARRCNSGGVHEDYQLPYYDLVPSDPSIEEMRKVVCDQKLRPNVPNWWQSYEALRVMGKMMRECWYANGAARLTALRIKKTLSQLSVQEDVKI

murine Tβr1 = biological target: T5, murine Tβr1 (murine, UniProt Q64729 30-503)
T5 sequence (looked up): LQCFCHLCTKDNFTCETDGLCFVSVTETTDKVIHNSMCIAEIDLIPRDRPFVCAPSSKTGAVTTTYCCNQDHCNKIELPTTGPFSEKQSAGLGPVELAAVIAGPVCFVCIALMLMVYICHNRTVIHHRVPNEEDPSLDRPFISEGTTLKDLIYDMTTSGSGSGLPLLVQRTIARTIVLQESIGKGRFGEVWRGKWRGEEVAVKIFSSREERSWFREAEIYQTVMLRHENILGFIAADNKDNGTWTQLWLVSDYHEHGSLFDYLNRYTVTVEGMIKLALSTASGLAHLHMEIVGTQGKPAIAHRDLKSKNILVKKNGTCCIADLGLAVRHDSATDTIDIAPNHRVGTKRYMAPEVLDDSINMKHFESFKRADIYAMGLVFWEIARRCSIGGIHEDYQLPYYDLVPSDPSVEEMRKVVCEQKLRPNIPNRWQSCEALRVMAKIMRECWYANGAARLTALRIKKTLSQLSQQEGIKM

murine Acvr2a = murine Acvr2a (murine, UniProt P27038 20-513)
murine Bmpr2 = biological target: T6, murine Bmpr2 (murine, UniProt O35607 27-1038)
T6 sequence (looked up): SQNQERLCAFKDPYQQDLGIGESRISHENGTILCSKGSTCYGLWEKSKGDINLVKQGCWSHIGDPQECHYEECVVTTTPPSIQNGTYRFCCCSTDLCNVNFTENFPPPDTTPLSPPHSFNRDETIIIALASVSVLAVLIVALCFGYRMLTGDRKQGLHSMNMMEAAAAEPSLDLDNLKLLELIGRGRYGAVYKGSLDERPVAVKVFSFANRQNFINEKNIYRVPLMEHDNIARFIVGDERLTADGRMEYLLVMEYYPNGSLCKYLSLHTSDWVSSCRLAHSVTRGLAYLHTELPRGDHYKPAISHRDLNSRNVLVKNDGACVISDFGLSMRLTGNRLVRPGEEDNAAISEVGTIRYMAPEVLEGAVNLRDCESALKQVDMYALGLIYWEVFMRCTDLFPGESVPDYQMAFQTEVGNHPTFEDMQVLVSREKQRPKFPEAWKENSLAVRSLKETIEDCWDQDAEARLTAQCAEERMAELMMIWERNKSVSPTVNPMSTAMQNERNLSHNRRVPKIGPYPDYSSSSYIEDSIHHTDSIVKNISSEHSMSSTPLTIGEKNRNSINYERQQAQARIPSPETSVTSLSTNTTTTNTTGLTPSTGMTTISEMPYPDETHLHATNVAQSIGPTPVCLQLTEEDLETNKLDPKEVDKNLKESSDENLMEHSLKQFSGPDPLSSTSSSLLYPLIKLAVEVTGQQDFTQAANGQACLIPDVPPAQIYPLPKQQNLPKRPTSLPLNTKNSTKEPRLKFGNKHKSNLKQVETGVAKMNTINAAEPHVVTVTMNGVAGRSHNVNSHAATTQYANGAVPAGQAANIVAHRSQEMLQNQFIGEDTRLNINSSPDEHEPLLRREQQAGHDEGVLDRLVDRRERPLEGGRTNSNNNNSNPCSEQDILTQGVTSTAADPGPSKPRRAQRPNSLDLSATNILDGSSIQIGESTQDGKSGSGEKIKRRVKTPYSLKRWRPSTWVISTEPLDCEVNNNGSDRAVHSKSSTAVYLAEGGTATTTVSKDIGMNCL

murine Acvr2b = murine Acvr2b (murine, UniProt P27040 19-536)
murine Bmpr1a = murine Bmpr1a (murine, UniProt P36895 24-532)
murine Bmpr1a, sequence (P36895 24-532): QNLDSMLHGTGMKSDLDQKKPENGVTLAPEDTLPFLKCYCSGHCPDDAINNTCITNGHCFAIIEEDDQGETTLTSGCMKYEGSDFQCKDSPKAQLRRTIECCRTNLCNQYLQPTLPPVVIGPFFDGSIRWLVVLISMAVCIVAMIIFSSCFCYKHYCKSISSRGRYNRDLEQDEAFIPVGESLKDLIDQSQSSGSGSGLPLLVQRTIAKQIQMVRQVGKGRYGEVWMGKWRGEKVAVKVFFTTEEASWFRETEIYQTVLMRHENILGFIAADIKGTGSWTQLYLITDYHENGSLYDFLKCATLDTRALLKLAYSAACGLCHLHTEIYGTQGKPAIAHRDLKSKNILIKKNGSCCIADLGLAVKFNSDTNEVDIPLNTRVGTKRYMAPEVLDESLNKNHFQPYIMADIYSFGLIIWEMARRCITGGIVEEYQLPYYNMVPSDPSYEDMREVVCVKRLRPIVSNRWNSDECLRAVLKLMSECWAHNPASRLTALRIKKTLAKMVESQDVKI

murine Acvr2a, sequence (P27038 20-513): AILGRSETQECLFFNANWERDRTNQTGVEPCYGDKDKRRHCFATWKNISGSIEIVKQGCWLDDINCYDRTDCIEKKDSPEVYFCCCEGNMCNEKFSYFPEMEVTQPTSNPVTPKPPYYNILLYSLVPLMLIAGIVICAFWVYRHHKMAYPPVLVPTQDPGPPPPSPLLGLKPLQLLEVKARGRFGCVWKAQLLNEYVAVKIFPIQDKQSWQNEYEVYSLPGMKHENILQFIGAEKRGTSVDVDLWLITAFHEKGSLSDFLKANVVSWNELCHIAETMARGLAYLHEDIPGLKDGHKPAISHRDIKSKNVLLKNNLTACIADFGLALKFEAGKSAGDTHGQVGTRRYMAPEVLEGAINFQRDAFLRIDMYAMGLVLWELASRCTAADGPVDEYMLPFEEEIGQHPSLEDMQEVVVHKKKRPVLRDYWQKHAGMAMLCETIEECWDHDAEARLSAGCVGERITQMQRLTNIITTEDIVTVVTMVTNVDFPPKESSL
murine Acvr2b, sequence (P27040 19-536): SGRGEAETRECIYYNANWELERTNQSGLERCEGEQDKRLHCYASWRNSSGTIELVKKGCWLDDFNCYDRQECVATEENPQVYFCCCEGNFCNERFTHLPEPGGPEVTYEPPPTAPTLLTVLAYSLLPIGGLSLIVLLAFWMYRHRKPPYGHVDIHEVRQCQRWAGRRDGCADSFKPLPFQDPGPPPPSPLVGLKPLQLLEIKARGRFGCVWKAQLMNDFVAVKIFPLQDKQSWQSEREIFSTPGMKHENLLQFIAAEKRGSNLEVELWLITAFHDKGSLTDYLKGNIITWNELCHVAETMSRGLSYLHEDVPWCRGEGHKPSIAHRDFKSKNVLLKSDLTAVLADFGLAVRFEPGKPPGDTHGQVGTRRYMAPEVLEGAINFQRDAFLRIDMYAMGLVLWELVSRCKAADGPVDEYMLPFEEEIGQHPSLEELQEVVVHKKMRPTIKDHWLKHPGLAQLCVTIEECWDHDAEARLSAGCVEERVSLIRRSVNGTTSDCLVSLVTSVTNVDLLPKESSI
murine Bmpr1b, sequence (P36898 14-502): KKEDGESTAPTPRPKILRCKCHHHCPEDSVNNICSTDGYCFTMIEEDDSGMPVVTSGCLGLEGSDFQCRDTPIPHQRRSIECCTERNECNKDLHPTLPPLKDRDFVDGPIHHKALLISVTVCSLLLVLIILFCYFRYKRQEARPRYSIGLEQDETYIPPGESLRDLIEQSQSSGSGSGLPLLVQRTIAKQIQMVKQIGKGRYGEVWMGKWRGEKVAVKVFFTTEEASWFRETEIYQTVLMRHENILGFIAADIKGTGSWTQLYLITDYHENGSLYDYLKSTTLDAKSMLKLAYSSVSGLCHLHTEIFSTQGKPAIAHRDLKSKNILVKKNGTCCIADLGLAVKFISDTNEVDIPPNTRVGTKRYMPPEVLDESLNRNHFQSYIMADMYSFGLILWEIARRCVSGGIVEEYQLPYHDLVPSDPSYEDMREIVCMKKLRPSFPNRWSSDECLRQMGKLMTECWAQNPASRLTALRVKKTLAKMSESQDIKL

In the case of “human NOG (Noggin) (from UniProt Q13253 28-232)”, the NOG DNA surplus that blocks SBE reporter activation to control levels, NIH3T3 cells (fold surplus of transfected NOG-DNA) [1] is reported as 500, the rel. luciferase activity (SBE reporter, NIH3T3 cells) at 5x surplus of co-transfected NOG DNA (rel. luciferase activity) [1] is reported as 9.31 and the rel. luciferase activity (SBE reporter, NIH3T3 cells) at 50x surplus of co-transfected NOG DNA (rel. luciferase activity) [1] is reported as 7.11. It also gave a chondrogenic potential in chicken micromass culture (Alcian blue), NOG co-expressed ([1]; scale: % of the wild-type activity in the absence of its antagonist) greater than 100, a rel. luciferase activity (SBE reporter, NIH3T3 cells) at 5x surplus of co-transfected NOG DNA (rel. luciferase activity) [2] of 1.53 and a rel. luciferase activity (SBE reporter, NIH3T3 cells) at 50x surplus of co-transfected NOG DNA (rel. luciferase activity) [2] of 1.51.

B1: wildtype human BMP2 (ligand)
chain: QAKHKQRKRLKSSCKRHPLYVDFSDVGWNDWIVAPPGYHAFYCHGECPFPLADHLNSTNHAIVQTLVNSVNSKIPKACCVPTELSAISMLYLDENEKVVLKNYQDMVVEGCGCR
B1 was tested, and the “rel. luciferase activity (SBE reporter, COS-1 cells)” value (murine Acvr1 c) was 2.06 rel. luciferase activity, the “rel. luciferase activity (SBE reporter, COS-1 cells)” value (murine Acvr1) was 1.63 rel. luciferase activity and the “rel. luciferase activity (SBE reporter, COS-1 cells)” value (murine Acvrl1) was 6.41 rel. luciferase activity. For the same molecule, the “rel. luciferase activity (SBE reporter, COS-1 cells)” value (murine Bmpr1b) was 37.5 rel. luciferase activity, the “rel. luciferase activity (SBE reporter, COS-1 cells)” value (murine Actr1 b) was 2.81 rel. luciferase activity and the “rel. luciferase activity (SBE reporter, COS-1 cells)” value (murine Tβr1) was 2.44 rel. luciferase activity. For the same molecule, the “rel. luciferase activity (SBE reporter, COS-1 cells)” value (murine Acvr2a) was 57.4 rel. luciferase activity, the “rel. luciferase activity (SBE reporter, COS-1 cells)” value (murine Bmpr2) was 268 rel. luciferase activity and the “rel. luciferase activity (SBE reporter, COS-1 cells)” value (murine Acvr2b) was 171 rel. luciferase activity.

B2: hBMP2(N341 V-N384W) (ligand)
chain: QAKHKQRKRLKSSCKRHPLYVDFSDVGWNDWIVAPPGYHAFYCHGECPFPLADHLNSTVHAIVQTLVNSVNSKIPKACCVPTELSAISMLYLDENEKVVLKWYQDMVVEGCGCR
B2 was tested, and the “rel. luciferase activity (SBE reporter, COS-1 cells)” value (murine Bmpr1a) was 24.6 rel. luciferase activity, the “rel. luciferase activity (SBE reporter, COS-1 cells)” value (murine Acvr1 c) was 2.75 rel. luciferase activity and the “rel. luciferase activity (SBE reporter, COS-1 cells)” value (murine Acvr1) was 1.23 rel. luciferase activity. The “rel. luciferase activity (SBE reporter, COS-1 cells)” value (murine Acvrl1) was 7.57 rel. luciferase activity, the “rel. luciferase activity (SBE reporter, COS-1 cells)” value (murine Bmpr1b) was 28.8 rel. luciferase activity and the “rel. luciferase activity (SBE reporter, COS-1 cells)” value (murine Actr1 b) was 3.4 rel. luciferase activity. The “rel. luciferase activity (SBE reporter, COS-1 cells)” value (murine Tβr1) was 2.52 rel. luciferase activity, the “rel. luciferase activity (SBE reporter, COS-1 cells)” value (murine Acvr2a) was 46.7 rel. luciferase activity and the “rel. luciferase activity (SBE reporter, COS-1 cells)” value (murine Bmpr2) was 262 rel. luciferase activity. For the same molecule, the “rel. luciferase activity (SBE reporter, COS-1 cells)” value (murine Acvr2b) was 156 rel. luciferase activity.
